The values that follow come from PMC10144703, “Molecular Mechanism of Sirtuin 1 Inhibition by Human Immunodeficiency Virus 1 Tat Protein” (Life, 2023).

Test [1] addresses T1, human mini-Sirt1 (aa 183-505-(GGGS)2-641-665) (Homo sapiens, UniProt Q96EB6).
T1 construct: aa 183-505-(GGGS)2-641-665; made in house; host or cells: E. coli CodonPlus(DE3)
T1 sequence (Q96EB6 with tags, fused parts or gaps limits assumed): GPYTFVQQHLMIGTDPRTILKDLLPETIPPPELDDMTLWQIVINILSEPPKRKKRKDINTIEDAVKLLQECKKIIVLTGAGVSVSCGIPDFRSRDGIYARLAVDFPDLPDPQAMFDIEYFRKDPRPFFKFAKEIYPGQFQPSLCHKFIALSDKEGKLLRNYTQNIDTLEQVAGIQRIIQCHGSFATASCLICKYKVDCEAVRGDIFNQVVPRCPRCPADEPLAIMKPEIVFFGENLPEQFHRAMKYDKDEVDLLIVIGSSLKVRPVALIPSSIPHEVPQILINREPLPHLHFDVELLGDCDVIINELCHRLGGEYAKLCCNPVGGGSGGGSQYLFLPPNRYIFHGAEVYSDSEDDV
As to the kind of experiment: FdL assay, mini-Sirt1. Type of test: biochemical. The settings on record: FdL-1 at substrate Km, 15% (v/v) DMSO, n = 3. An excerpt: (§1) A human mini-Sirt1 construct (aa 183-505-(GGGS)2-641-665), as described in [27], was generated in a modified pET-19b with a TEV cleavage site. This construct and human full-length Sirt1 (fl-Sirt1) in pET-15b, Sirt1-(183-664) and Sirt1-(214-664) in pET-15b, mini-Sirt1-∆SBD (aa 214-505-(GGGS)2-641-665) and mini-Sirt1-∆ESA (aa 183–505) in a modified pET-19b with TEV cleavage site, Sirt2-(43-356) in a modified pET-19b with a His6-Sumo tag, Sirt3-(93-399) in a modified pET-32a with Trx-His6 tag and TEV cleavage site, hSirt3-(118-399) in pVFT3S (Sungkyunkwan University, Seoul, Republic of Korea) with His6-Trx tag and TEV cleavage site, Sirt5-(34-302) in pET-151/D-TOPO, and Sirt6-(1-355) in pQE80L.1 were purified as described. Shortly, proteins were expressed at 20 °C (mini-Sirt1 constructs at 16 °C) in E. coli CodonPlus(DE3), cell lysates were cleared by centrifugation, and proteins were purified via affinity chromatography using a nickel NTA column. After digestion with thrombin or TEV protease, proteins were re-run over the nickel NTA column, pooled, and concentrated. The samples were, then, subjected either directly to size exclusion chromatography in 50 mM Tris/HCl, pH 8.0, 150 mM NaCl, 1 mM TCEP, or to an ion exchange chromatography followed by size exclusion chromatography. Purified proteins (yield 1—4 mg/L expression culture) were concentrated to 12–18 mg/mL and shock frozen for storage at −80 °C.
(§2) For sirtuin deacetylation activity measurements, we used two well-characterized assays, a coupled enzymatic assay, and the so-called FdL assay, respectively.
Km values for FdL-1 were determined in the presence of 3 mM NAD^+ and Km values for NAD^+ in presence of 0.5 mM FdL-1 peptide. […] Reactions were incubated for 20 min, followed by a 1:1 addition of developer (2 mM NAM and 10 mg/mL trypsin in assay buffer). After incubation for 45 min at room temperature, fluorescence was measured with a FluoDia T70 (Photon Technology International Inc., Birmingham, NJ, USA) with an excitation wavelength of 365 nm and emission wavelength of 465 nm. […]

Test [2] has as its target T2, human full-length Sirt1 (fl-Sirt1) (Homo sapiens, UniProt Q96EB6).
T2 construct: human full-length Sirt1 (fl-Sirt1) in pET-15b; made in house; host or cells: E. coli CodonPlus(DE3)
T2 sequence (Q96EB6 1-747): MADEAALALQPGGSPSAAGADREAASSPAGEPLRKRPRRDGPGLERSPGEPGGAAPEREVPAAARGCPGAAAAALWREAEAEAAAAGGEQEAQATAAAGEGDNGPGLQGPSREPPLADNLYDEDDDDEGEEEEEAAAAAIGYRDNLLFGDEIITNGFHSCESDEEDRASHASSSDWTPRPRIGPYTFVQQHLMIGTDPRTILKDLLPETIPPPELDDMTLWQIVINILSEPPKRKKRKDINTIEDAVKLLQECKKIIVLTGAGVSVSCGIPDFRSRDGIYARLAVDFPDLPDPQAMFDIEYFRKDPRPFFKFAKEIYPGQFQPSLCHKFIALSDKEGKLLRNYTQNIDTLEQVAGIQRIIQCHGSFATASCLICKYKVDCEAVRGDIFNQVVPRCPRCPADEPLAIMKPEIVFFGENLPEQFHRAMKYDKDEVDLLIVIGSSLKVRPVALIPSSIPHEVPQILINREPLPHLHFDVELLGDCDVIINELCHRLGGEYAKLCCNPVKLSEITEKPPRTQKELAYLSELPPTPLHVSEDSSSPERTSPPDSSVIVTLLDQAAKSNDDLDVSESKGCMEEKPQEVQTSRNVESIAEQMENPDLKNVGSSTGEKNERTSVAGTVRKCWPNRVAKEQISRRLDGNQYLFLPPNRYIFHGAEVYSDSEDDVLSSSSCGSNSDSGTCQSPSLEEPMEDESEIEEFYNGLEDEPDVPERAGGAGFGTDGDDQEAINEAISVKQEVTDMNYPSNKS
As to the kind of experiment: Continuous coupled enzymatic sirtuin activity assay, fl-Sirt1. Type of test: biochemical. The note with it: coupled-enzyme assay, n = 2. An excerpt:
A human mini-Sirt1 construct (aa 183-505-(GGGS)2-641-665), as described in [27], was generated in a modified pET-19b with a TEV cleavage site. This construct and human full-length Sirt1 (fl-Sirt1) in pET-15b, Sirt1-(183-664) and Sirt1-(214-664) in pET-15b, mini-Sirt1-∆SBD (aa 214-505-(GGGS)2-641-665) and mini-Sirt1-∆ESA (aa 183–505) in a modified pET-19b with TEV cleavage site, Sirt2-(43-356) in a modified pET-19b with a His6-Sumo tag, Sirt3-(93-399) in a modified pET-32a with Trx-His6 tag and TEV cleavage site, hSirt3-(118-399) in pVFT3S (Sungkyunkwan University, Seoul, Republic of Korea) with His6-Trx tag and TEV cleavage site, Sirt5-(34-302) in pET-151/D-TOPO, and Sirt6-(1-355) in pQE80L.1 were purified as described. […]
Continuous coupled enzymatic sirtuin activity assays were conducted as described. […] Reactions were monitored for 1 h at room temperature by absorption spectroscopy at 340 nm in a UV/vis plate reader (BioTek). The slope for the linear range (typically 5–25 min) was evaluated after background correction with measurements without NAD^+. Additional control reactions were run by either omitting enzyme or omitting peptide substrate to ensure that the signal measured reflects the NAD+-dependent deacetylation activity of the sirtuin.

A further test deals with T3, mini-Sirt1 (Homo sapiens, UniProt Q96EB6).
T3 construct: aa 183-505-(GGGS)2-641-665; made in house; host or cells: E. coli CodonPlus(DE3)
T3 sequence (Q96EB6 with tags, fused parts or gaps limits assumed): T1 sequence (Q96EB6 with tags, fused parts or gaps limits assumed)
As to the kind of experiment: Deacetylation of ac-Tat-46–54 as substrate by mini-Sirt1. It counts as biochemical. The procedure: as §2
Continuous coupled enzymatic sirtuin activity assays were conducted as described. […] For assays with Tat peptides, 5% (v/v) DMSO was added to all reactions to enhance peptide solubility. Reactions were monitored for 1 h at room temperature by absorption spectroscopy at 340 nm in a UV/vis plate reader (BioTek). The slope for the linear range (typically 5–25 min) was evaluated after background correction with measurements without NAD^+. Additional control reactions were run by either omitting enzyme or omitting peptide substrate to ensure that the signal measured reflects the NAD+-dependent deacetylation activity of the sirtuin.

The next test deals with human Sirt3-(118-399). The test can be described thus: Crystal structure of Sirt3/Tat peptide complexes. Type of test: binding. The note with it: Sirt3/Tat-37–59 at 1.95 Å; Sirt3/ac-Tat-46–54 at 1.65 Å. As to the method:
For crystallization of the Sirt3 and Tat peptide complexes, 10 mg/mL human Sirt3-(118-399) in 20 mM Tris/HCl, pH 8.0, 150 mM NaCl, 5% (v/v) glycerol, 1 mM TCEP were incubated with 2 mM ac-Tat-46-54 or Tat-37-59 (the latter in 10% (v/v) DMSO) for 60 min at 20 °C. Both complexes were crystallized using the sitting-drop vapor-diffusion method at 20 °C with 100 mM MES, pH 6.0, 30% (w/v) PEG 200, 5% (w/v) PEG 3000 as reservoir solution for Sirt3/ac-Tat-46-54 and 100 mM CHES, pH 9.0, 20% (w/v) PEG 8000 for Sirt3/Tat-37-59. Crystals were cryoprotected with the respective reservoir solution supplemented with 25% (v/v) glycerol and flash-frozen in liquid nitrogen.
Diffraction data were collected at BESSY II, beamline MX14.1 operated by Helmholtz Zentrum Berlin (Berlin, Germany) at 0.9184 Å wavelength. Indexing, scaling, and merging of the Sirt3/ac-Tat-46-54 complex data were performed with XDSAPP [37]. The Sirt3/Tat-37–59 complex data were indexed and integrated with DIALS [38] and further processed with CCP4 programs Rebatch, Pointless, Aimless, and cTruncate, with 5% of the reflections assigned to Rfree with Uniqueify. The complex structures were phased by molecular replacement with PHASER [40] and using a Sirt3/ac-ACS/carba-NAD (PDB ID 4FVT) and a Sirt3/ADPr complex (PDB ID 4BVB), respectively, as a search model. […]

Test [3] addresses T2, human full-length Sirt1 (fl-Sirt1). As to the kind of experiment: FdL deacetylation assay, fl-Sirt1. It counts as biochemical. The note with it: FdL assay, 100 µM FdL-1, 500 µM NAD^+, pH 7.8, 37 °C; n = 2; read-out: IC50, fl-Sirt1, truncated Tat-Cys^− constructs.
Description: as §1, with “Purified proteins (yield 1—4 mg/L expression culture) were concentrated to 12–18 mg/mL and shock frozen for storage at −80 °C.” left out

The subject of a further test is Sirt1. The settings on record: FdL assay, wildtype Tat; ref [9]; read-out: IC50, Sirt1 (previously reported); cited from earlier work.

Where no end group is shown, it is not given here.

Turning to SYGRKKRRQ [Tat-46–54], the IC50 in test [1] (37 °C, pH 7.8, ± s.d., read-out: IC50 (FdL assay), mini-Sirt1, non-acetylated Tat-46–54) is 131 ± 88.1 µM.

In the case of “Tat-49–60: synthetic non-acetylated Tat fragment, residues 49–60 (RKKRRQRRRPSQ)”, in test [1] (dose-dependent), the “inhibition of mini-Sirt1 by synthetic Tat peptides (Figure 2F)” value is given as “weaker inhibition”. In addition, the “inhibition of mini-Sirt1, titration (Figure 2G)” value in test [1] (titration) is listed as “neither Tat-31–49 nor Tat-49–60 alone was sufficient for significant inhibition”.

“ac-Tat-46–54: Lys50-acetylated Tat-46–54 peptide (SYGRK(Ac)KRRQ)”: the “effect on fl-Sirt1 activity upon addition to assay containing p53-peptide” value in test [2] (100 µM ac-p53 as basal substrate) is on record as “expected increase of activity”. Also, in test [2] (fl-Sirt1, 100 µM ac-p53 as basal substrate), the “onset of inhibition upon addition to assay containing p53-peptide” value was “no indications of instant or delayed onset of inhibition”. The “Sirt1-dependent deacetylation (as substrate)” value with mini-Sirt1 (Michaelis–Menten kinetics, mini-Sirt1, compared with ac-p53-Lys382, n = 3) is reported as “efficient Sirt1-dependent deacetylation, even slightly more efficient than for its standard substrate peptide ac-p53-Lys382”. The “inhibitory effects at later time points of the deacetylation assay” value in the test with mini-Sirt1 (time-course for deacetylation by mini-Sirt1, n = 3) was “did not observe any inhibitory effects at later time points”. In addition, in the test on human Sirt3-(118-399), the “binding site/mode in Sirt3 crystal structure” value is on record as “inserted in the substrate binding groove in the typical, β-sheet-like fashion”.

For the substance “residues 21–63 of Tat-Cys^−: construct also lacking the N-terminal region from aa 1–20 (ASNRAHAKKSAYHSQVAFITKGLGISYGRKKRRQRRRPSQGGQ)”, the IC50 in test [3] is ~30 µM.

As for “wildtype Tat: HIV1 transactivator of transcription protein, wildtype, as previously reported”, the IC50 in the test on Sirt1 was 3.5 µM.
